{
  "source": "patent US10500249B2",
  "about": "“Compositions and methods for preventing or treating diseases, conditions, or processes characterized by aberrant fibroblast proliferation and extracellular matrix deposition” (MOERAE MATRIX, INC., priority 2014, dated 2019)",
  "assay_in_all_cases": "Kinase Profiling Assay",
  "format_in_all_cases": "biochemical",
  "conditions_in_all_cases": "100 μM",
  "key": {"BrSK2 (h)": {"target": "T1, BrSK2 (h) (Homo sapiens, UniProt Q8IWQ3)", "T1 sequence (Q8IWQ3 1-736)": "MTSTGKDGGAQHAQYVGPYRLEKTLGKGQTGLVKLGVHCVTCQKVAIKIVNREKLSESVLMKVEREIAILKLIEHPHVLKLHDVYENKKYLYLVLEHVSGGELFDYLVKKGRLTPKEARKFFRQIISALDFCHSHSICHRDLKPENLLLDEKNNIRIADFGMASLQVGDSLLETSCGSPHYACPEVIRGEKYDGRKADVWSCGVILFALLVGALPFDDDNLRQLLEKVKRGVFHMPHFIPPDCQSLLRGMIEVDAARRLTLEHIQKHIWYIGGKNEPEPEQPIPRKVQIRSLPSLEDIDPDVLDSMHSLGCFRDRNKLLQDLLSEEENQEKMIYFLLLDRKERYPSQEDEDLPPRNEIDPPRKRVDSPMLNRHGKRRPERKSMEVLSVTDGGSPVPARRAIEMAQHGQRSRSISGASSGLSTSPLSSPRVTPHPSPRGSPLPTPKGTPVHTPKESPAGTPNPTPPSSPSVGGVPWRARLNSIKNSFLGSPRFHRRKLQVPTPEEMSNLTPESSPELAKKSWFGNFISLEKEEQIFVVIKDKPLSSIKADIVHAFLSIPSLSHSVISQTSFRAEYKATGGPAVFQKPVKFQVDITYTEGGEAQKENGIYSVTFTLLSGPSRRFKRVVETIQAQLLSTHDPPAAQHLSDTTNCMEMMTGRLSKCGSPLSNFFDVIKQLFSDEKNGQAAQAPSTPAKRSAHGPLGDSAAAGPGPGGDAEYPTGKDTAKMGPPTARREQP", "method_in_brief": "(§1)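 Scintillation counting quantifies radiolabeled, positively charged substrate retained on a negatively charged filter after kinase reaction with labeled ATP; inhibitor peptide present.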"}, "CLK3 (h)": {"target": "T2, CLK3 (h) (Homo sapiens, UniProt P49761)", "T2 construct": "purchased Millipore", "method_in_brief": "as §1"}, "Fms (h)": {"target": "Fms (h) (Homo sapiens, UniProt P07333)", "method_in_brief": "as §1"}, "IKKα (h)": {"target": "T3, IKKα (h) (Homo sapiens, UniProt O15111)", "T3 construct": "purchased Millipore", "T3 sequence (O15111 1-745)": "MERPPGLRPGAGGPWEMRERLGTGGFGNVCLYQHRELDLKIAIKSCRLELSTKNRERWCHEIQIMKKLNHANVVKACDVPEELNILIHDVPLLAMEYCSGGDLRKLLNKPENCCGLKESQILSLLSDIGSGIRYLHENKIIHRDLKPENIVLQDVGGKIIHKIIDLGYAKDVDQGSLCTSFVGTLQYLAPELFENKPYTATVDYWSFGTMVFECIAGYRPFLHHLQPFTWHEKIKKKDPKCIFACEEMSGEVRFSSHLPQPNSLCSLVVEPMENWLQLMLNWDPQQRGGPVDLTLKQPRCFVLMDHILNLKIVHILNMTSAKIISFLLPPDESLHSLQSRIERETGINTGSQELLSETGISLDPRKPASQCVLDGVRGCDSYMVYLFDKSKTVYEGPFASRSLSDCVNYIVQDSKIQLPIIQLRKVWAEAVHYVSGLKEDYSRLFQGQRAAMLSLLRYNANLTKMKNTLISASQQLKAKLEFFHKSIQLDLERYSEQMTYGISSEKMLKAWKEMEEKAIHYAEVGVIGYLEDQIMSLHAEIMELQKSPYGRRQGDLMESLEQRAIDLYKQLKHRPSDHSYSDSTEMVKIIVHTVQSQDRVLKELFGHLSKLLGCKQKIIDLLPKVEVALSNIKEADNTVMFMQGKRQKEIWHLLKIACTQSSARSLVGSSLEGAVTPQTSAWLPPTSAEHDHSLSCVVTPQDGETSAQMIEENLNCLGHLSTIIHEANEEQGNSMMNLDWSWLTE", "method_in_brief": "as §1"}, "KDR (h)": {"target": "KDR (h) (Homo sapiens, UniProt P35968)", "sequence (P35968 20-1356)": "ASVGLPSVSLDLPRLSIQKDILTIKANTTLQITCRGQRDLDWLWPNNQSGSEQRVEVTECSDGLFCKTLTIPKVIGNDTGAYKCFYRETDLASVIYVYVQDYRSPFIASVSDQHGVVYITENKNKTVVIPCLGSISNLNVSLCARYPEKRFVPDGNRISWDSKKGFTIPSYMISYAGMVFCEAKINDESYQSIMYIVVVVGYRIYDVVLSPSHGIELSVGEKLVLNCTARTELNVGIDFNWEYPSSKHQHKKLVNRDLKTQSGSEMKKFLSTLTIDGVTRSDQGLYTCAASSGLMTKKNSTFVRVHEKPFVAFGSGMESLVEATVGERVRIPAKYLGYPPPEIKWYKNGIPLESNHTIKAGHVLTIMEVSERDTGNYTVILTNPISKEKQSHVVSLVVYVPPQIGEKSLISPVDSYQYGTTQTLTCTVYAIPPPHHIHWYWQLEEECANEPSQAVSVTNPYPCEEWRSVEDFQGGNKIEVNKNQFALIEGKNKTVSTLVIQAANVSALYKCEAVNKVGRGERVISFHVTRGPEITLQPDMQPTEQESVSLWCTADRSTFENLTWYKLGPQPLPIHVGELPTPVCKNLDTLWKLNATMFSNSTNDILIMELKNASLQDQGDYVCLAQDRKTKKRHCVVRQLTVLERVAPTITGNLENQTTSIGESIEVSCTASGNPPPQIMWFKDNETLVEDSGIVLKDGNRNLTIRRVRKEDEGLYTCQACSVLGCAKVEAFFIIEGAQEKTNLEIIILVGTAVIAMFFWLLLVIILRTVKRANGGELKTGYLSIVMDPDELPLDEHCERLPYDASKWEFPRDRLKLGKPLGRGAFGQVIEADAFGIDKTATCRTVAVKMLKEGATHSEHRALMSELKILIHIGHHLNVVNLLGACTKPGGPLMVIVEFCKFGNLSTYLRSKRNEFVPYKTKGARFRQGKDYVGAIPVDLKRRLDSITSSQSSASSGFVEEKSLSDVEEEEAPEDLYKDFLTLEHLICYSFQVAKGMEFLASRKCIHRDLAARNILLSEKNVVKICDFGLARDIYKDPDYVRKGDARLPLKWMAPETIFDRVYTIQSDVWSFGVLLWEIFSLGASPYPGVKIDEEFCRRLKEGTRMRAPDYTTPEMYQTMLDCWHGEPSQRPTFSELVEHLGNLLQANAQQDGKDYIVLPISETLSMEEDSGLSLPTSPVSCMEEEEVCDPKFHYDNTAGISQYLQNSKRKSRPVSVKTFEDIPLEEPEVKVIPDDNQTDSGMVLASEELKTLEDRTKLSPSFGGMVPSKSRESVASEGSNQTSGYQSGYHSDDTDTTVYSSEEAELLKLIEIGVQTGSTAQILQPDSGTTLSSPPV", "method_in_brief": "as §1"}, "MELK (h)": {"target": "MELK (h) (Homo sapiens, UniProt Q14680)", "sequence (Q14680 whole entry)": "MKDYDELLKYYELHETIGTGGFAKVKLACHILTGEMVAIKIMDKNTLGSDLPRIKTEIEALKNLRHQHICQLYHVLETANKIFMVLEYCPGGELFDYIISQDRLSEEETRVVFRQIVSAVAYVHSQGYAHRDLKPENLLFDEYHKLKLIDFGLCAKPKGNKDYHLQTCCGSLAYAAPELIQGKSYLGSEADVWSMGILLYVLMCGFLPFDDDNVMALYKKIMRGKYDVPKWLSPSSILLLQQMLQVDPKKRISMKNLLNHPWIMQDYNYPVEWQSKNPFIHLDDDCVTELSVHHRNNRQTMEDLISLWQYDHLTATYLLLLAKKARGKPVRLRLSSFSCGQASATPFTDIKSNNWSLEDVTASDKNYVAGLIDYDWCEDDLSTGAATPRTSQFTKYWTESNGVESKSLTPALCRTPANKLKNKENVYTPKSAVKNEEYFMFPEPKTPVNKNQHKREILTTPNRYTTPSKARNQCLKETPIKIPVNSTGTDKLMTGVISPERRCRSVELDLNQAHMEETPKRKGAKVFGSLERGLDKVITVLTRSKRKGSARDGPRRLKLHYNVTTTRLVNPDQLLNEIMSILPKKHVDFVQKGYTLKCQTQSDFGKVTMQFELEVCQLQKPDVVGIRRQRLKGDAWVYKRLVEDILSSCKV", "method_in_brief": "as §1"}, "MLK1 (h)": {"target": "T4, MLK1 (h) (Homo sapiens, UniProt P80192)", "T4 construct": "purchased Millipore", "T4 sequence (P80192 whole entry)": "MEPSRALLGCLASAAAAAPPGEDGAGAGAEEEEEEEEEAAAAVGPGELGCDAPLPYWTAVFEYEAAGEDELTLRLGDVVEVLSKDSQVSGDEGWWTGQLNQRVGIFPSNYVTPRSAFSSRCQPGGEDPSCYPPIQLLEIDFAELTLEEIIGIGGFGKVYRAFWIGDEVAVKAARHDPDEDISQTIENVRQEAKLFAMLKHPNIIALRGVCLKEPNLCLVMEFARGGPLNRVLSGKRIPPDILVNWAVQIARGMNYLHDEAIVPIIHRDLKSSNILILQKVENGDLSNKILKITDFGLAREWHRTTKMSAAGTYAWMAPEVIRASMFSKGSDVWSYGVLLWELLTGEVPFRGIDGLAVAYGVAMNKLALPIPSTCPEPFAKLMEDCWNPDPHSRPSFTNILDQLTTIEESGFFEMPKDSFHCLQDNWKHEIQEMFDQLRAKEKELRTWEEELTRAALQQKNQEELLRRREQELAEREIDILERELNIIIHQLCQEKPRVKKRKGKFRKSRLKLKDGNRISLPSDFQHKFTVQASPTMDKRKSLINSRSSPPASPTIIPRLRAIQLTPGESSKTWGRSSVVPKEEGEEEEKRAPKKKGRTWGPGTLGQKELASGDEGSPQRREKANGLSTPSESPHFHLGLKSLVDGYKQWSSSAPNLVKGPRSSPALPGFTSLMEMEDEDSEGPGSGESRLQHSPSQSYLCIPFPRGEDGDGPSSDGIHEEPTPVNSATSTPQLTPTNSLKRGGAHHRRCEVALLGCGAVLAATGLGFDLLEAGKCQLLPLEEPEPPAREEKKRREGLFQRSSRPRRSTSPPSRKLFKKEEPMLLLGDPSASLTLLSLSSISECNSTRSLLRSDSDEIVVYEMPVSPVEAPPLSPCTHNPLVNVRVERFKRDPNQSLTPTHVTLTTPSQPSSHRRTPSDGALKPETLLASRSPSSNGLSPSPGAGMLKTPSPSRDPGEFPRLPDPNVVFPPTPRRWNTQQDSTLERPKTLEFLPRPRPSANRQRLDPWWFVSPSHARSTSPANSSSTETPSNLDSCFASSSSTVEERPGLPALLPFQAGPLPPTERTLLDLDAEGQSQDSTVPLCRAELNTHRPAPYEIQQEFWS", "method_in_brief": "as §1"}, "MSK2 (h)": {"target": "T5, MSK2 (h) (Homo sapiens, UniProt O75676)", "T5 construct": "purchased Millipore", "T5 sequence (O75676 whole entry)": "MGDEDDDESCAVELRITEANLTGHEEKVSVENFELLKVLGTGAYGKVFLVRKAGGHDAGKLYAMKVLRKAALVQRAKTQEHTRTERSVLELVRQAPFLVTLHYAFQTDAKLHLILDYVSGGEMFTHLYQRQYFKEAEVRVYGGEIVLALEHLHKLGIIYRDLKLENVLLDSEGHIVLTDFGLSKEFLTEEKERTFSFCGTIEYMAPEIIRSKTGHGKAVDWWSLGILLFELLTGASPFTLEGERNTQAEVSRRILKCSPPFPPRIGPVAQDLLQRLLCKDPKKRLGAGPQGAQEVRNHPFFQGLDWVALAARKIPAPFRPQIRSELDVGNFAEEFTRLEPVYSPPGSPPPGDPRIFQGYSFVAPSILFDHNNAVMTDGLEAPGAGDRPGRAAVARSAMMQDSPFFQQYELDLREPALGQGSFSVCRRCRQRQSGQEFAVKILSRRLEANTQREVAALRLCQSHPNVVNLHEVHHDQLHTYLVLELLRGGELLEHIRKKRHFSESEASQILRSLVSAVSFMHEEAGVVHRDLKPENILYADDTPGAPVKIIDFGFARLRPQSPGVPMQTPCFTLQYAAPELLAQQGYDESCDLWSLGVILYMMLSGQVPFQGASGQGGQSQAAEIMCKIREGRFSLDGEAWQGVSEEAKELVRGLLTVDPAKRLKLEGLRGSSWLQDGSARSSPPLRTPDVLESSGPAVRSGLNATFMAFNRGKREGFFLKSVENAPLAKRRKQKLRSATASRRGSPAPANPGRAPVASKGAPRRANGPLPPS", "method_in_brief": "as §1"}, "PAK5 (h)": {"target": "T6, PAK5 (h) (Homo sapiens, UniProt Q9P286)", "T6 construct": "purchased Millipore", "method_in_brief": "as §1"}, "SRPK1 (h)": {"target": "SRPK1 (h) (Homo sapiens, UniProt Q96SB4)", "method_in_brief": "as §1"}, "Syk (h)": {"target": "Syk (h) (Homo sapiens, UniProt P43405)", "method_in_brief": "as §1"}, "TrkB (h)": {"target": "TrkB (h) (Homo sapiens, UniProt Q16620)", "method_in_brief": "as §1"}, "ACK1 (h)": {"target": "ACK1 (h) (Homo sapiens, UniProt Q07912)", "sequence (Q07912 whole entry)": "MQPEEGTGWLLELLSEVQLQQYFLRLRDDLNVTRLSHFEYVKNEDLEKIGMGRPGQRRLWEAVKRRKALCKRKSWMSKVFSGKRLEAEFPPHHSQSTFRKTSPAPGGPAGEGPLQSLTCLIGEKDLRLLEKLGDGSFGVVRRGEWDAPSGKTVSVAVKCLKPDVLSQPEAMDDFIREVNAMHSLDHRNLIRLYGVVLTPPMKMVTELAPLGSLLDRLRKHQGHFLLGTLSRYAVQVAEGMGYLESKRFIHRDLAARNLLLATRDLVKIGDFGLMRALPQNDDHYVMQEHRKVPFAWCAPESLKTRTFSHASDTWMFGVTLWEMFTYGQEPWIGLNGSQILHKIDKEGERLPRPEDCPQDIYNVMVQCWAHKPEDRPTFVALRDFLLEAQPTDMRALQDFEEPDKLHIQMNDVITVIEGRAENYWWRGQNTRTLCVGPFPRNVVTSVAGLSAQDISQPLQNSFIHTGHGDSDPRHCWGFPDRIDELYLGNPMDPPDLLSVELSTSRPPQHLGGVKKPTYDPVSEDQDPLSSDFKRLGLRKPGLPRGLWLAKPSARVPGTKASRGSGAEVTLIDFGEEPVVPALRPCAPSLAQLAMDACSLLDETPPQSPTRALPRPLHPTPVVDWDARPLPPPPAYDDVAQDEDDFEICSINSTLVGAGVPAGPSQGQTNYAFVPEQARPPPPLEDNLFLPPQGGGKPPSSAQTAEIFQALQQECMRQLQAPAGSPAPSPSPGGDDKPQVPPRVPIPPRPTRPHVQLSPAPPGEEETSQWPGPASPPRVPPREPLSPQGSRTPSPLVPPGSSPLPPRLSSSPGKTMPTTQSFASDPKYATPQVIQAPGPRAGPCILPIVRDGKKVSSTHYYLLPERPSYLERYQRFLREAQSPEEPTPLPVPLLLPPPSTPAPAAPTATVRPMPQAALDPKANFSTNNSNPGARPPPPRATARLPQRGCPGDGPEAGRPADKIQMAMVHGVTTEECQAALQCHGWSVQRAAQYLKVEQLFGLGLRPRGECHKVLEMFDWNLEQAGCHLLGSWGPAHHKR", "method_in_brief": "as §1"}},
  "data": [
    {"sequence": "FAKLAARLYRKALARQLGVAA [MMI-0300]", "values": [
      {"measurement": "% activity", "setting": "BrSK2 (h)", "result": 83, "unit": "%"},
      {"measurement": "% activity", "setting": "CLK3 (h)", "result": 61, "unit": "%"},
      {"measurement": "% activity", "setting": "Fms (h)", "result": 45, "unit": "%"},
      {"measurement": "% activity", "setting": "IKKα (h)", "result": 93, "unit": "%"},
      {"measurement": "% activity", "setting": "KDR (h)", "result": 101, "unit": "%"},
      {"measurement": "% activity", "setting": "MELK (h)", "result": 16, "unit": "%"},
      {"measurement": "% activity", "setting": "MLK1 (h)", "result": 40, "unit": "%"},
      {"measurement": "% activity", "setting": "MSK2 (h)", "result": 56, "unit": "%"},
      {"measurement": "% activity", "setting": "PAK5 (h)", "result": 110, "unit": "%"},
      {"measurement": "% activity", "setting": "SRPK1 (h)", "result": 90, "unit": "%"},
      {"measurement": "% activity", "setting": "Syk (h)", "result": 24, "unit": "%"},
      {"measurement": "% activity", "setting": "TrkB (h)", "result": 5, "unit": "%"}
    ]},
    {"sequence": "HRRIKAWLKKIKALARQLGVAA (Mammalian) [MMI-0500]", "values": [
      {"measurement": "% activity", "setting": "ACK1 (h)", "result": 64, "unit": "%"},
      {"measurement": "% activity", "setting": "BrSK2 (h)", "result": 84, "unit": "%"},
      {"measurement": "% activity", "setting": "CLK3 (h)", "result": 76, "unit": "%"},
      {"measurement": "% activity", "setting": "Fms (h)", "result": 14, "unit": "%"},
      {"measurement": "% activity", "setting": "IKKα (h)", "result": 50, "unit": "%"},
      {"measurement": "% activity", "setting": "KDR (h)", "result": 15, "unit": "%"},
      {"measurement": "% activity", "setting": "MELK (h)", "result": 0, "unit": "%"},
      {"measurement": "% activity", "setting": "MLK1 (h)", "result": 43, "unit": "%"},
      {"measurement": "% activity", "setting": "MSK2 (h)", "result": 14, "unit": "%"},
      {"measurement": "% activity", "setting": "PAK5 (h)", "result": 125, "unit": "%"},
      {"measurement": "% activity", "setting": "SRPK1 (h)", "result": 80, "unit": "%"},
      {"measurement": "% activity", "setting": "Syk (h)", "result": 5, "unit": "%"},
      {"measurement": "% activity", "setting": "TrkB (h)", "result": 12, "unit": "%"}
    ]},
    {"sequence": "KAFAKLAARLYRKALARQLGVAA [MMI-0400]", "values": [
      {"measurement": "% activity", "setting": "ACK1 (h)", "result": 95, "unit": "%"},
      {"measurement": "% activity", "setting": "BrSK2 (h)", "result": 86, "unit": "%"},
      {"measurement": "% activity", "setting": "CLK3 (h)", "result": 84, "unit": "%"},
      {"measurement": "% activity", "setting": "Fms (h)", "result": 37, "unit": "%"},
      {"measurement": "% activity", "setting": "IKKα (h)", "result": 87, "unit": "%"},
      {"measurement": "% activity", "setting": "KDR (h)", "result": 94, "unit": "%"},
      {"measurement": "% activity", "setting": "MELK (h)", "result": 17, "unit": "%"},
      {"measurement": "% activity", "setting": "MLK1 (h)", "result": 33, "unit": "%"},
      {"measurement": "% activity", "setting": "MSK2 (h)", "result": 52, "unit": "%"},
      {"measurement": "% activity", "setting": "SRPK1 (h)", "result": 96, "unit": "%"},
      {"measurement": "% activity", "setting": "Syk (h)", "result": 9, "unit": "%"},
      {"measurement": "% activity", "setting": "TrkB (h)", "result": 8, "unit": "%"}
    ]},
    {"sequence": "YARAAARQARAKALNRQLGVA (Mammalian) [MMI-0200]", "values": [
      {"measurement": "% activity", "setting": "ACK1 (h)", "result": 97, "unit": "%"},
      {"measurement": "% activity", "setting": "CLK3 (h)", "result": 76, "unit": "%"},
      {"measurement": "% activity", "setting": "Fms (h)", "result": 92, "unit": "%"},
      {"measurement": "% activity", "setting": "KDR (h)", "result": 110, "unit": "%"},
      {"measurement": "% activity", "setting": "MELK (h)", "result": 59, "unit": "%"},
      {"measurement": "% activity", "setting": "MLK1 (h)", "result": 84, "unit": "%"},
      {"measurement": "% activity", "setting": "MSK2 (h)", "result": 88, "unit": "%"},
      {"measurement": "% activity", "setting": "PAK5 (h)", "result": 100, "unit": "%"},
      {"measurement": "% activity", "setting": "SRPK1 (h)", "result": 93, "unit": "%"},
      {"measurement": "% activity", "setting": "Syk (h)", "result": 36, "unit": "%"},
      {"measurement": "% activity", "setting": "TrkB (h)", "result": 7, "unit": "%"}
    ]}
  ]
}
